Test results as given in PMC4618557.

Molecular target: Vasna-Cd4d3+4-bio (zebrafish)
Test: SPR; BIAcore; Vasna-Cd4d3+4-bio immobilised on a streptavidin-coated sensor chip at high and low levels, Cd4d3+4-bio as reference; Islr2-Cd4d3+4-6xHis injected in serial dilutions; HBS-EP buffer, 28 °C; 20 μl/min for equilibrium, 100 μl/min for kinetics (7, 14, 28 μM); purification of the Vasna bait before capture not given

Islr2-Cd4d3+4-6xHis (domain or fragment)
Kd: 12.4 µM | half-life: 0.16 s | koff: 4.3 s⁻¹
